Measurements as given in patent publication EP4722237A1, “METHOD FOR DETECTING BIOLOGICAL ACTIVITY OF INSULIN OR ANALOGUE THEREOF AND KIT” (Sunshine Lake Pharma Co., Ltd., priority 2023, dated 2024).

Experiments:
[1] = molecular target: T1, insulin receptor B (Homo sapiens, UniProt P06213); assay: Luciferase reporter gene detection method (HEK293/IRB-STAT5b-03-Luciferase cells, luminescence signal); assay type: cell-based; details: after stimulation of cells
T1 construct: expressed in transfected cells; host or cells: HEK293 (HEK293-IRB monoclonal line; HEK293/IRB-STAT5b-03-Luciferase 001#clone)
Protocol: ① 0.6 mM insulin glargine reference solution: An appropriate amount of insulin glargine reference was weighed, dissolved completely in 0.01 M HCL and diluted to 0.6 mM, and mixed thoroughly.
② 0.6 mM Insulin Glargine Test Solution: An appropriate amount of insulin glargine injection solution was taken.
③ 15000 nM Reference/Test Solution Stock Solution: 780 µl of 0.01 M hydrochloric acid solution was added to 20 µl of a 0.6 mM insulin glargine reference/test solution and mixed thoroughly.
④ […] control/test solution: 780 µl of DMEM medium containing 1% FBS (fetal bovine serum) was added to 20 µl of a 15000 nM reference/test solution.
⑤ Serial dilutions of control/test compounds: Dilutions were performed in a 96-well plate according to the method shown in Table 1.
The culture flask was taken out of the incubator, the culture medium was discarded, and 2 ml of DPBS (sterile saline) buffer was added and gently washed twice. 1 ml of DPBS and 1 ml of trypsin solution were slowly added along the cell-free side of the flask to digest the cells for approximately 2 min. […]
After 15 h of incubation, the 384-well plate was removed from the incubator and allowed to stand at room temperature for approximately 5 min. […] After 3 minutes, the luminescence signal was detected in the LUM mode on a multi-functional microplate reader. […]

[2] = molecular target: insulin IR β receptor (Homo sapiens, UniProt P06213); assay: HTRF kit method (insulin receptor phosphorylation); assay type: cell-based; details: specificity comparison, Figure 6
Source text: Currently, commercial kits such as HTRF (homogeneous time-resolved fluorescence) and AlphaElisa are commonly used to assess insulin activity. These assays measure insulin IR β receptor phosphorylation levels to characterize insulin's cellular bioactivity. On the one hand, commercial test kits such as HTRF and AlphaElisa are expensive and have high detection costs; on the other hand, technical means such as HTRF and AlphaElisa are relatively complicated to operate, usually requiring the addition of insulin drugs to co-incubate with cells, then adding lysis buffer for incubation and lysis, and then adding the corresponding phosphorylated antibody solution for incubation, and finally testing. Under normal circumstances, the sample volume of each step of these kits needs to be controlled to 4~8 µl, which requires a high level of operational skills of the analyst.
Two different analysts used the same batch of test products (prepared in 6 parallel portions) and reference products to perform tests using the HTRF kit method on different dates.

dose-effect relationship [1]: no obvious dose-effect relationship | response in HTRF kit assay [2]: no response
Substance: liraglutide
